T1: Abp1, P15891
T1 sequence (P15891 535-592, looked up): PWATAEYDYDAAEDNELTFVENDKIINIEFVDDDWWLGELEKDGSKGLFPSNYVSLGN

T2: Bbc1, P47068
T2 sequence (P47068 1-78, looked up): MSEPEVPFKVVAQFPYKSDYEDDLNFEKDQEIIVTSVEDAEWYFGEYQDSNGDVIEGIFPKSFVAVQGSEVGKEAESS

T3: Boi1, P38041
T3 sequence (P38041 1-86, looked up): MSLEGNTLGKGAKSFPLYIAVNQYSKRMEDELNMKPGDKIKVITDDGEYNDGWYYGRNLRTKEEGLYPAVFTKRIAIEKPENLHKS

T4: Boi2, P39969
T4 sequence (P39969 32-116, looked up): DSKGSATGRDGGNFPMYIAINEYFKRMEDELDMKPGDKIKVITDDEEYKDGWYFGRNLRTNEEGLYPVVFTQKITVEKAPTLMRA

T5: Bud14, P27637
T5 sequence (P27637 247-328, looked up): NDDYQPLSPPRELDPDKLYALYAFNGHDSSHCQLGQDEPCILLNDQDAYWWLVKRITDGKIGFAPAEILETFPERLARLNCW

T6: Bzz1-1, P38822
T6 sequence (P38822 478-572, looked up): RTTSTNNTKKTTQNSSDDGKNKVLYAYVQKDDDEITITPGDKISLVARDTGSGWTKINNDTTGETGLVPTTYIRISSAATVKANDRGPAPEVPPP

T7: Bzz1-2, P38822
T7 sequence (P38822 568-633, looked up): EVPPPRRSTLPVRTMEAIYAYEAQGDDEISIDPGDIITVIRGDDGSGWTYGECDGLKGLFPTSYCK

T8: Cdc25, P04821
T8 sequence (P04821 50-136, looked up): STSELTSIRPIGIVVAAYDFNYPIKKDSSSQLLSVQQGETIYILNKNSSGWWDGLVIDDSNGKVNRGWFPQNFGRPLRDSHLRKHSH

T9: Cyk3, Q07533
T9 sequence (Q07533 1-83, looked up): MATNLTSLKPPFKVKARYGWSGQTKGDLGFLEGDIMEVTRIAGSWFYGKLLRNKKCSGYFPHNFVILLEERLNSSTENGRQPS

T10: Fus1, P11710
T10 sequence (P11710 432-512, looked up): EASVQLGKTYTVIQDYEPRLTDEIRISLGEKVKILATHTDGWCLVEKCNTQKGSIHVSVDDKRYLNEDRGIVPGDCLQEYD

T11: Hof1, Q05080
T11 sequence (Q05080 590-669, looked up): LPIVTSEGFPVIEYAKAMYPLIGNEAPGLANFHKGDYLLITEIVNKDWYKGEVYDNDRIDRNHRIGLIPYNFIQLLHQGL

T12: Hse1, P38753
T12 sequence (P38753 208-285, looked up): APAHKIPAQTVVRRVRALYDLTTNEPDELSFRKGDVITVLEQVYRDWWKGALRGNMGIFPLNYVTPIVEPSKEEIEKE

T13: Lsb1, P53281
T13 sequence (P53281 45-122, looked up): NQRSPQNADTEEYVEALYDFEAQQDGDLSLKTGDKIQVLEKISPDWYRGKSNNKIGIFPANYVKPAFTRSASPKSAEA

T14: Lsb3, P43603
T14 sequence (P43603 385-451, looked up): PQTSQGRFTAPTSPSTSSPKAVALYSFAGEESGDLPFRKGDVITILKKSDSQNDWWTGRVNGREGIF

T15: Lsb4, P32793
T15 sequence (P32793 402-468, looked up): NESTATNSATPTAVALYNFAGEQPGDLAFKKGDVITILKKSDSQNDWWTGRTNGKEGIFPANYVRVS

T16: Myo5, Q04439
T16 sequence (Q04439 1072-1160, looked up): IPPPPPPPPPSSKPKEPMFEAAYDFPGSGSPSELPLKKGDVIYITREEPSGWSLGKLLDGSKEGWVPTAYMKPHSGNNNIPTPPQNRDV

T17: Nbp2, Q12163
T17 sequence (Q12163 103-180, looked up): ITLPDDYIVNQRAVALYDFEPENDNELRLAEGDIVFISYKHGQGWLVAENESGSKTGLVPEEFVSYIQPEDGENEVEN

T18: Pex13, P80667
T18 sequence (P80667 295-386, looked up): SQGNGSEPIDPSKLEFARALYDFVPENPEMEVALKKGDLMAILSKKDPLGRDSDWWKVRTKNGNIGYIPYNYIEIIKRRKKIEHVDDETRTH

T19: Pin3, Q06449
T19 sequence (Q06449 53-122, looked up): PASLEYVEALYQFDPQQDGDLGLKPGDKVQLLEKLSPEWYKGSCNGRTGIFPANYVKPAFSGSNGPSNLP

T20: Sla1-2, P32790
T20 sequence (P32790 60-140, looked up): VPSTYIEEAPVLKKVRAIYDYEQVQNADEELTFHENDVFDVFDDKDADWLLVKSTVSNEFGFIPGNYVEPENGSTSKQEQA

T21: Sla1-3, P32790
T21 sequence (P32790 344-424, looked up): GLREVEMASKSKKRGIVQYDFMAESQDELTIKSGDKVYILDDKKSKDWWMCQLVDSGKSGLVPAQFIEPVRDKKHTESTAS


Assays:
Test in all cases: SPOT array
Abp1, P15891 = target: T1, Abp1, P15891; conditions: median of control spots 935
Bbc1, P47068 = target: T2, Bbc1, P47068; conditions: median of control spots 796
Bem1-1, P29366 = conditions: median of control spots 4282
Bem1-2, P29366 = conditions: median of control spots 4347
Boi1, P38041 = target: T3, Boi1, P38041; conditions: median of control spots 1162
Boi2, P39969 = target: T4, Boi2, P39969; conditions: median of control spots 1161
Bud14, P27637 = target: T5, Bud14, P27637; conditions: median of control spots 956
Bzz1-1, P38822 = target: T6, Bzz1-1, P38822; conditions: median of control spots 4446
Bzz1-2, P38822 = target: T7, Bzz1-2, P38822; conditions: median of control spots 4538
Cdc25, P04821 = target: T8, Cdc25, P04821; conditions: median of control spots 969
Cyk3, Q07533 = target: T9, Cyk3, Q07533; conditions: median of control spots 1451
Fus1, P11710 = target: T10, Fus1, P11710; conditions: median of control spots 1200
GST = conditions: median of control spots 978
Hof1, Q05080 = target: T11, Hof1, Q05080; conditions: median of control spots 4086
Hse1, P38753 = target: T12, Hse1, P38753; conditions: median of control spots 1727
Lsb1, P53281 = target: T13, Lsb1, P53281; conditions: median of control spots 388
Lsb3, P43603 = target: T14, Lsb3, P43603; conditions: median of control spots 406
Lsb4, P32793 = target: T15, Lsb4, P32793; conditions: median of control spots 397
Myo3, P36006 = conditions: median of control spots 468
Myo5, Q04439 = target: T16, Myo5, Q04439; conditions: median of control spots 471
Nbp2, Q12163 = target: T17, Nbp2, Q12163; conditions: median of control spots 357
Pex13, P80667 = target: T18, Pex13, P80667; conditions: median of control spots 1341
Pin3, Q06449 = target: T19, Pin3, Q06449; conditions: median of control spots 2171
Rvs167, P39743 = conditions: median of control spots 2707
Sho1, P40073 = conditions: median of control spots 1148
Sla1-2, P32790 = target: T20, Sla1-2, P32790; conditions: median of control spots 712
Sla1-3, P32790 = target: T21, Sla1-3, P32790; conditions: median of control spots 5475

Sequence of Rvs167, P39743 (P39743 419-482): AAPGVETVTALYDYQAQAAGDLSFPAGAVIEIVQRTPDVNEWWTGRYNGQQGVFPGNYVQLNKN
Sequence of Sho1, P40073 (P40073 287-367): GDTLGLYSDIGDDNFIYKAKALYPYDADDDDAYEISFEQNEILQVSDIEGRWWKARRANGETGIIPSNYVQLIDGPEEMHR
Sequence of Bem1-1, P29366 (P29366 55-141): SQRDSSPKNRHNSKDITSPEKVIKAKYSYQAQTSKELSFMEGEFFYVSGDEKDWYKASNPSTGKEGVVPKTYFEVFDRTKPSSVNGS
Sequence of Bem1-2, P29366 (P29366 139-227): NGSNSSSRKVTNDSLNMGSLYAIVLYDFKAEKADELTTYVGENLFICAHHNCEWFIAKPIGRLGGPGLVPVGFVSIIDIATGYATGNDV

SPOT intensity (Abp1, P15891)	SPOT intensity (Bbc1, P47068)	SPOT intensity (Bem1-1, P29366)	SPOT intensity (Bem1-2, P29366)	SPOT intensity (Boi1, P38041)	SPOT intensity (Boi2, P39969)	SPOT intensity (Bud14, P27637)	SPOT intensity (Bzz1-1, P38822)	SPOT intensity (Bzz1-2, P38822)	SPOT intensity (Cdc25, P04821)	SPOT intensity (Cyk3, Q07533)	SPOT intensity (Fus1, P11710)	SPOT intensity (GST)	SPOT intensity (Hof1, Q05080)	SPOT intensity (Hse1, P38753)	SPOT intensity (Lsb1, P53281)	SPOT intensity (Lsb3, P43603)	SPOT intensity (Lsb4, P32793)	SPOT intensity (Myo3, P36006)	SPOT intensity (Myo5, Q04439)	Binder	further results
301	201	0	0	2	3	16	1	11	127	2	6	1	0	14	9	6	16	8	1	VRVKKRPLIRPLNSS	SPOT intensity (Nbp2, Q12163): 9; SPOT intensity (Pex13, P80667): 4; SPOT intensity (Pin3, Q06449): 1; SPOT intensity (Rvs167, P39743): 7; SPOT intensity (Sho1, P40073): 188; SPOT intensity (Sla1-2, P32790): 2; SPOT intensity (Sla1-3, P32790): 22
102	54	1	4	11	1	17	0	0	271	1	16	1	7	25	4	0	12	8	0	LRIKRKPVQTFFEFI	SPOT intensity (Nbp2, Q12163): 46; SPOT intensity (Pex13, P80667): 13; SPOT intensity (Pin3, Q06449): 5; SPOT intensity (Rvs167, P39743): 2; SPOT intensity (Sho1, P40073): 173; SPOT intensity (Sla1-2, P32790): 0; SPOT intensity (Sla1-3, P32790): 9
72	175	3	4	9	2	34	3	6	32	3	64	2	4	12	0	0	1	0	0	KRKRFNLLLPKPYLT	SPOT intensity (Nbp2, Q12163): 53; SPOT intensity (Pex13, P80667): 3; SPOT intensity (Pin3, Q06449): 0; SPOT intensity (Rvs167, P39743): 3; SPOT intensity (Sho1, P40073): 98; SPOT intensity (Sla1-2, P32790): 2; SPOT intensity (Sla1-3, P32790): 34
5	2	0	0	0	0	3	0	3	0	0	0	0	3	4	0	2	2	0	0	VNFRRIPTGPDSPPT	SPOT intensity (Nbp2, Q12163): 0; SPOT intensity (Pex13, P80667): 6; SPOT intensity (Pin3, Q06449): 0; SPOT intensity (Rvs167, P39743): 2; SPOT intensity (Sho1, P40073): 19; SPOT intensity (Sla1-2, P32790): 0; SPOT intensity (Sla1-3, P32790): 17
158	395	1	8	15	4	64	3	5	131	5	136	1	17	19	114	5	10	6	0	HRRRRVFSIPSLKSI	SPOT intensity (Nbp2, Q12163): 176; SPOT intensity (Pex13, P80667): 4; SPOT intensity (Pin3, Q06449): 7; SPOT intensity (Rvs167, P39743): 3; SPOT intensity (Sho1, P40073): 123; SPOT intensity (Sla1-2, P32790): 0; SPOT intensity (Sla1-3, P32790): 117
90	26	0	16	1	1	2	0	5	51	0	15	0	9	17	137	2	21	7	2	ISRRRLPVIMHRLKM	SPOT intensity (Nbp2, Q12163): 5; SPOT intensity (Pex13, P80667): 22; SPOT intensity (Pin3, Q06449): 27; SPOT intensity (Rvs167, P39743): 21; SPOT intensity (Sho1, P40073): 112; SPOT intensity (Sla1-2, P32790): 1; SPOT intensity (Sla1-3, P32790): 20

— publication PMC2756588
